Experimental data from PMC6941993 (2020).

Target: stand-alone apical domain (sAD) designed from White-throated woodrat TfR1 (Neotoma albigula (White-throated …, N-linked glycan at Asn251 seen in the crystal)); two putative N-glycosylation sites (Asn204, Asn251), both partially glycosylated)
Test: SPR

B1: GP1_(GTOV)–Fc (Fc fusion)
chain: ELPSLCRVNNSYSLIRLSHNSNQALSVEYVDVHPVLCSSSPTILDNYTQCIKGSPEFDWILGWTIKGLGHDFLRDPRICCEPKKTTNAEFTFQLNLTDSPETHHYRSKIEVGIRHLFGNYITNDSYSKMSVVMRNTTWEGQCSN
Kd: 360 nM

B2: GP1_(SBAV)–Fc (Fc fusion)
chain: DHPTSCMVNHSTYYVHENKNATWCLEVSVTDVTLLMAEHDRQVLNNLSNCVHPAVEHRSRMVGLLEWIFRALKYDFNHDPTPLCQKQTSTVNETRVQINITEGFGSHGFEDTILQRLGVLFGSRIAFSNIQDLGKKRFLLIRNSTWKNQCEM
Kd: 63 nM
